In patent US20100040635A1:

Key:
[1] = molecular target: H5 hemagglutinin of influenza A/Turkey/65596/06 (H5N1) (influenza A virus H5N1 A/Turkey/65596/06); test: cell-based or functional assay
[2] = molecular target: H5 hemagglutinin of influenza A/Vietnam/1203/04 (H5N1) (influenza A virus H5N1 A/Vietnam/1203/04); test: cell-based or functional assay
[3] = molecular target: H5 hemagglutinin of influenza A/Indonesia/5/05 (H5N1) (influenza A virus H5N1 A/Indonesia/5/05); test: cell-based or functional assay
[4] = molecular target: H5 hemagglutinin of influenza A/Vietnam/1203/04 (H5N1) (influenza A virus H5N1 A/Vietnam/1203/04)
[5] = molecular target: H1 hemagglutinin of influenza A/New Caledonia/20/99 (H1N1) (influenza A virus H1N1 A/New Caledonia/20/99); test: cell-based or functional assay

Binder | Minimum inhibitory concentrations required to neutralize virus [1] [µg/mL] | Minimum inhibitory concentrations required to neutralize virus [2] [µg/mL] | Minimum inhibitory concentrations required to neutralize virus [3] [µg/mL] | Neutralization (MIC), H5N1 Vietnam 1203 virus, microneutralization [4] [µg/mL] | Minimum inhibitory concentrations required to neutralize virus [5] [µg/mL]
Antibody 2 (antibody, V domains shown) VH: QVQLVQSGAEVKKPGSSVKVSCKTSGGTFSSYAVTWVRQAPGQGLEWMGGIIGMFGTTNYAQKFQGRVTITADELTSTAYMELSSLRSEDTAVYYCARGSYYYESSLDYWGRGTL VL: ETTLTQSPATLSVSPGERATLSCRASQSVSRNLAWYQQKPGQAPRLLIYGASSRATGIPDRFSGSGSGTDFTLTISRLEPEDFAVYYCQQYGSSSITFGQGTRLEIKR | 108 | 63 | 27 | 188 | 
Antibody 3 (antibody, V domains shown) V domain 1: EVQLVQSGAEVKKPGSSVKVSCKTSGGTFSSYAVTWVRQAPGQGLEWMGAIIGMFGTTNYAQKFQGRVTITADELTSTAYMELSSLRSDDTAVYYCARGSYYYESSLDYWGKGTL V domain 2: QSVLTQPPSVSGAPGQRVTISCGGSRSNIGAGYDVHWYQQFPGTAPKVVIYGNNNRPSGVPDRFSGSKSGTSASLAITGLQAEDEANYYCQSYDTNLGGSIFGGGTQVTVL | 31 |  | 16 | 175 | 
Antibody 4 (antibody, V domains shown) VH: QVQLQESGPGLVKPSETLSLTCTVSGYSFDSGYYWGWLRQPPGKGLEWIGSIYHSRNTYYNPSLKSRVTISVDTSKNQFSLQLSSVTAADTAVYYCARGTWYSSNLRYWFDPWGKGTL VL: NFMLTQPHSVSESPGKTVTISCTGSGGNIARNYVQWYQQRPGSAPVTVILEDDKRPSGIPDRFSGSIDRSSNSASLTISGLRTEDEALYYCQSYDDSDLVVFGGGTKLT |  |  | > 333 |  | > 333
Antibody 1 (antibody, V domains shown) VH: QVQLVQSGAEVKKPGSSVRVSCKTSGGTFSSYAVTWVRQAPGQGLEWMGGIIGMFGTTNYAQKFQGRLTITADEMTSTAYMELSSLRSEDTAVYYCARGSYYYETTLDYWGRGTL VL: ETTLTQSPGTLSLSPGERATLSCRVSQSVSSNYLAWYQQKPGQAPRLLIYGASSRATGIPDRFSGSGSGTDFTLTISRLEPEDFAVYYCQQYGTSPRAFGHGTKVEIKR | 9.3 |  | 9.3 |  | 9
